Assay results from patent publication US20240350586A1 (TSINGHUA UNIVERSITY, published 2024).
Values belong to the binder of their own block, whether it stands above or below them.

B1: HA-CCT2 (chaperonin subunit CCT2, wild type, N-terminal HA tag) (other)
chain: ASLSLAPVNIFKAGADEERAETARLTSFIGAIAIGDLVKSTLGPKGMDKILLSSGRDASLMVTNDGATILKNIGVDNPAAKVLVDMSRVQDDEVGDGTTSVTVLAAELLREAESLIAKKIHPQTIIAGWREATKAAREALLSSAVDHGSDEVKFRQDLMNIAGTTLSSKLLTHHKDHFTKLAVEAVLRLKGSGNLEAIHIIKKLGGSLADSYLDEGFLLDKKIGVNQPKRIENAKILIANTGMDTDKIKIFGSRVRVDSTAKVAEIEHAEKEKMKEKVERILKHGINCFINRQLIYNYPEQLFGAAGVMAIEHADFAGVERLALVTGGEIASTFDHPELVKLGSCKLIEEVMIGEDKLIHFSGVALGEACTIVLRGATQQILDEAERSLHDALCVLAQTVKDSRTVYGGGCSEMLMAHAVTQLANRTPGKEAVAMESYAKALRMLPTIIADNAGYDSADLVAQLRAAHSEGNTTAGLDMREGTIGDMAILGITESFQVKRQVLLSAAEAAEVILRVDNIIKAAPRKRVPDHHPC
notes: Expressed in HEK293T or U2OS from pFUGW-HA-CCT2; CCT genes were amplified from HEK293T cDNA; also called WT CCT2; HA-CCT2 WT; not shown: N-terminal HA tag

What was measured:
T7-LC3B = T7-LC3B (UniProt Q9GZQ8 1-120); experiment: co-IP of HA-CCT2 with T7-ATG8s in HEK293T
Description: The cells were permeabilized with digitonin before fixation. [0136] (G) Quantification of LC3 around Q103-HTT IB (mean±SEM) as shown in (F). […] [0137] […] The cells were permeabilized with digitonin before immunoblot analysis. LE, long exposure; SE, short exposure. [0138] (I) Quantification of normalized Q103-HTT (mean±SEM) in (H). […] [0139] […] The VLIR motif VIL is highlighted in red. [0140] […] The data are representative of three independent experiments. [0141] […] The cells were permeabilized with digitonin before fixation. [0142] (M) Quantification of LC3 around IBs (mean±SEM) as shown in (L). […] [0143] […] [0144] (O) Quantification of normalized Q103-HTT (mean±SEM) in (N).
Co-immunoprecipitation was performed essentially as described before. In brief, 24 h after transfection, the cells were collected and lysed on ice for 30 min in co-IP buffer (50 mM Tris/HCl pH 7.4, 150 mM NaCl, 1 mM EDTA, 0.5% NP40) with protease inhibitor mixture, and the lysates were cleared by centrifugation. The resulting supernatants were incubated with indicated agarose or magnetic beads and rotated at 4° C. for 3 h. The agarose was washed five times with co-IP buffer. As for the BFP-tagged Q103, the supernatants were incubated with rabbit anti-BFP antibodies and Protein A/G PLUS-Agarose according to the manufacturers' protocol. […]

[1] = target: T1, His-T7-LC3C (purified protein) (UniProt Q9BXW4 1-147); experiment: in vitro pull-down of purified proteins, immunoblot
T1 construct: Purified on Ni sepharose; used in peptide and protein pull-downs; also called T7-LC3C protein; purified LC3C; not shown: His and T7 tags
T1 sequence (Q9BXW4 whole entry): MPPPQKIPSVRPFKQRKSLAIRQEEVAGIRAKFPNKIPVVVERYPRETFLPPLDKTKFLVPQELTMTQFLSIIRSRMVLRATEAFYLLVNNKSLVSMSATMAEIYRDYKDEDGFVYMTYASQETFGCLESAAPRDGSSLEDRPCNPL

[2] = target: T2, T7-LC3C (expressed in cells) (UniProt Q9BXW4 1-126); experiment: co-IP with T7-LC3C in HEK293T
T2 construct: Expressed from pCDNA3-T7-LC3C; not shown: T7 tag
T2 sequence (Q9BXW4 1-126): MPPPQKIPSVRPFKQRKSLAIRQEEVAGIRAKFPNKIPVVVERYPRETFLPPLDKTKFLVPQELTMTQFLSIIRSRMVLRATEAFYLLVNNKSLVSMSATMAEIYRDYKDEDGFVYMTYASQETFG
Procedure: (§1) The data are representative of three independent experiments. [0146] […] The data are representative of three independent experiments. [0147] […] The data are representative of three independent experiments. [0148] […] The interaction of the peptides with T7-GABARAP or T7-GABARAPL1 proteins was analyzed by in vitro pull-down. The data are representative of three independent experiments. [0149] […] The data are representative of three independent experiments. [0150] […] [0151] (K) Quantification of Q103-HTT-GFP area/DAPI area (mean±SEM) as shown in [0152] (J). 48 h represents IB accumulation stage and 72 h represents clearance stage. P values are indicated (two-tailed t test, >20 views from three independent experiments). [0153] […] The data are representative of three independent experiments. [0154] […] The data are representative of three independent experiments. [0155] […] The data are representative of three independent experiments.
(§2) Co-immunoprecipitation was performed essentially as described before. In brief, 24 h after transfection, the cells were collected and lysed on ice for 30 min in co-IP buffer (50 mM Tris/HCl pH 7.4, 150 mM NaCl, 1 mM EDTA, 0.5% NP40) with protease inhibitor mixture, and the lysates were cleared by centrifugation. The resulting supernatants were incubated with indicated agarose or magnetic beads and rotated at 4° C. for 3 h. The agarose was washed five times with co-IP buffer.

[3] = target: B1; experiment: co-IP of HA-CCT2 with T7-GABARAP in HEK293T
Procedure: as §1, §2

[4] = target: T1, His-T7-LC3C (purified protein); experiment: peptide pull-down, immunoblot
Description: The data are representative of three independent experiments. […] The cells were permeabilized with digitonin before fixation. [0136] (G) Quantification of LC3 around Q103-HTT IB (mean±SEM) as shown in (F). […] [0137] […] The cells were permeabilized with digitonin before immunoblot analysis. LE, long exposure; SE, short exposure. [0138] (I) Quantification of normalized Q103-HTT (mean±SEM) in (H). […] [0139] […] The VLIR motif VIL is highlighted in red. [0140] […] The data are representative of three independent experiments. [0141] […] The cells were permeabilized with digitonin before fixation. [0142] (M) Quantification of LC3 around IBs (mean±SEM) as shown in (L). […] [0143] […] [0144] (O) Quantification of normalized Q103-HTT (mean±SEM) in (N).
After washing, 2×SDS loading buffer was added to the beads, and immunoblot was performed as described previously.

[5] = target: T3, His-mRuby2-CCT2 (purified) (human, UniProt P78371 2-535); experiment: recruitment of 4 uM mRuby2-CCT2 to FUS P525L granules in vitro, imaging
T3 construct: 4 uM added to FUS P525L granules in vitro; also called CCT2 protein; not shown: His tag and mRuby2
T3 sequence: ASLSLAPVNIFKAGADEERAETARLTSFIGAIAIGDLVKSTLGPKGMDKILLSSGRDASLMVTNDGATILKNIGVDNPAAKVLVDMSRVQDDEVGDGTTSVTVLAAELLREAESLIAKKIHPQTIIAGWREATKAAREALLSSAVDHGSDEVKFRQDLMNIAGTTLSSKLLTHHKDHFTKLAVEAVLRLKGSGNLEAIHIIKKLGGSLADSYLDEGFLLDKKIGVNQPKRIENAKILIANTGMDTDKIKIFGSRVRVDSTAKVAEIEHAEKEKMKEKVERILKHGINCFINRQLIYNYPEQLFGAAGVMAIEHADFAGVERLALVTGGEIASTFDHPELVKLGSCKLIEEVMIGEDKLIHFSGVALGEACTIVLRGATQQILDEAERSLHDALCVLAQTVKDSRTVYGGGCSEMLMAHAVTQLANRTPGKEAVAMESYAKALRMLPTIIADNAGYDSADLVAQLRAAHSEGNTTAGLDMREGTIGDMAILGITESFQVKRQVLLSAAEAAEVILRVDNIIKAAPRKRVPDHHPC
Description: [0179] […] [0180] […] [0181] […] [0182] […] [0184] […] [0185] […] [0186]

binding result [2]: no binding
B3: HA-CCT2 mVLL (other)
chain: ASLSLAPVNIFKAGADEERAETARLTSFIGAIAIGDLVKSTLGPKGMDKILLSSGRDASLMVTNDGATILKNIGVDNPAAKVLVDMSRVQDDEVGDGTTSVTVLAAELLREAESLIAKKIHPQTIIAGWREATKAAREALLSSAVDHGSDEVKFRQDLMNIAGTTLSSKLLTHHKDHFTKLAVEAVLRLKGSGNLEAIHIIKKLGGSLADSYLDEGFLLDKKIGVNQPKRIENAKILIANTGMDTDKIKIFGSRVRVDSTAKVAEIEHAEKEKMKEKVERILKHGINCFINRQLIYNYPEQLFGAAGVMAIEHADFAGVERLALVTGGEIASTFDHPELVKLGSCKLIEEVMIGEDKLIHFSGVALGEACTIVLRGATQQILDEAERSLHDALCVLAQTVKDSRTVYGGGCSEMLMAHAVTQLANRTPGKEAVAMESYAKALRMLPTIIADNAGYDSADLVAQLRAAHSEGNTTAGLDMREGTIGDMAILGITESFQVKRQAAASAAEAAEVILRVDNIIKAAPRKRVPDHHPC
notes: also called CCT2 VLL mutated to alanine; not shown: N-terminal HA tag

binding result [2]: no binding
B4: HA-CCT2 mVIL (other)
chain: ASLSLAPVNIFKAGADEERAETARLTSFIGAIAIGDLVKSTLGPKGMDKILLSSGRDASLMVTNDGATILKNIGVDNPAAKVLVDMSRVQDDEVGDGTTSVTVLAAELLREAESLIAKKIHPQTIIAGWREATKAAREALLSSAVDHGSDEVKFRQDLMNIAGTTLSSKLLTHHKDHFTKLAVEAVLRLKGSGNLEAIHIIKKLGGSLADSYLDEGFLLDKKIGVNQPKRIENAKILIANTGMDTDKIKIFGSRVRVDSTAKVAEIEHAEKEKMKEKVERILKHGINCFINRQLIYNYPEQLFGAAGVMAIEHADFAGVERLALVTGGEIASTFDHPELVKLGSCKLIEEVMIGEDKLIHFSGVALGEACTIVLRGATQQILDEAERSLHDALCVLAQTVKDSRTVYGGGCSEMLMAHAVTQLANRTPGKEAVAMESYAKALRMLPTIIADNAGYDSADLVAQLRAAHSEGNTTAGLDMREGTIGDMAILGITESFQVKRQVLLSAAEAAEAAARVDNIIKAAPRKRVPDHHPC
notes: also called CCT2 VIL mutated to alanine; not shown: N-terminal HA tag

binding result [3]: binds
B5: T7-GABARAP (expressed in cells) (other, UniProt O95166 1-116, looked up)
chain: MKFVYKEEHPFEKRRSEGEKIRKKYPDRVPVIVEKAPKARIGDLDKKKYLVPSDLTVGQFYFLIRKRIHLRAEDALFFFVNNVIPPTSATMGQLYQEHHEEDFFLYIAYSDESVYG
notes: not shown: T7 tag

binding result [4]: no binding
B6: CCT2 domain3 peptide 7 mVL(I)L (peptide)
peptide: ILGITESFQVKRQAAASAAEAAEAAARVDN
notes: Synthetic peptide coupled to agarose beads; VLL and VIL replaced by alanines; also called peptide 7 mutant (mVL (I) L)

Further lines, the binder ahead of its results:

Binder: B1
binding result (T7-LC3B): binds

B2: GST-HA-CCT2 with VLL and VIL mutated (purified) (other)
chain: ASLSLAPVNIFKAGADEERAETARLTSFIGAIAIGDLVKSTLGPKGMDKILLSSGRDASLMVTNDGATILKNIGVDNPAAKVLVDMSRVQDDEVGDGTTSVTVLAAELLREAESLIAKKIHPQTIIAGWREATKAAREALLSSAVDHGSDEVKFRQDLMNIAGTTLSSKLLTHHKDHFTKLAVEAVLRLKGSGNLEAIHIIKKLGGSLADSYLDEGFLLDKKIGVNQPKRIENAKILIANTGMDTDKIKIFGSRVRVDSTAKVAEIEHAEKEKMKEKVERILKHGINCFINRQLIYNYPEQLFGAAGVMAIEHADFAGVERLALVTGGEIASTFDHPELVKLGSCKLIEEVMIGEDKLIHFSGVALGEACTIVLRGATQQILDEAERSLHDALCVLAQTVKDSRTVYGGGCSEMLMAHAVTQLANRTPGKEAVAMESYAKALRMLPTIIADNAGYDSADLVAQLRAAHSEGNTTAGLDMREGTIGDMAILGITESFQVKRQAAASAAEAAEAAARVDNIIKAAPRKRVPDHHPC
notes: also called GST-CCT2s; CCT2 with mutation of VLL and VIL; not shown: N-terminal GST and HA tags
binding result [1]: no binding

B7: GFP-FUS P525L (purified, after TEV digestion of MBP-TEV-GFP-FUS P525L) (other, UniProt P35637 1-526, looked up)
chain: MASNDYTQQATQSYGAYPTQPGQGYSQQSSQPYGQQSYSGYSQSTDTSGYGQSSYSSYGQSQNTGYGTQSTPQGYGSTGGYGSSQSSQSSYGQQSSYPGYGQQPAPSSTSGSYGSSSQSSSYGQPQSGSYSQQPSYGGQQQSYGQQQSYNPPQGYGQQNQYNSSSGGGGGGGGGGNYGQDQSSMSSGGGSGGGYGNQDQSGGGGSGGYGQQDRGGRGRGGSGGGGGGGGGGYNRSSGGYEPRGRGGGRGGRGGMGGSDRGGFNKFGGPRDQGSRHDSEQDNSDNNTIFVQGLGENVTIESVADYFKQIGIIKTNKKTGQPMINLYTDRETGKLKGEATVSFDDPPSAKAAIDWFDGKEFSGNPIKVSFATRRADFNRGGGNGRGGRGRGGPMGRGGYGGGGSGGGGRGGFPSGGGGGGGQQRAGDWKCPNPTCENMNFSWRNECNQCKAPKPDGPGGGPGGSHMGGNYGDDRRGGRGGYDRGGYRGRGGDRGGFRGGRGGGDRGGFGPGKMDSRGEHRQDRRERLY
notes: 2 uM protein, as liquid granules (phase separation) or as solid aggregates (shaken at 700 rpm); also called FUS P525L granules; not shown: GFP
binding result [5]: binds
